In publication PMC3871819, “Differentially expressed myo-inositol monophosphatase gene (CaIMP) in chickpea (Cicer arietinum L.) encodes a lithium-sensitive phosphatase enzyme with broad substrate specificity and improves seed germination and seedling growth under abiotic stresses” (Journal of Experimental Botany, 2013):

Columns and labels:
[1] = substrate: O=P(O)(O)O[C@@H]1[C@H](O)[C@H](O)[C@@H](O)[C@H](O)[C@H]1O; test: malachite green phosphate release assay; assay type: biochemical, Cicer arietinum; conditions: Mg2+ (optimum 5 mM; typical assay 3 mM MgCl2), 50 mM Tris-Cl pH 8, 37 °C
Source text: (§1) malachite green phosphate release assay on CaIMP

[2] = substrate: O=P(O)(O)OC1O[C@@H](CO)[C@@H](O)[C@@H](O)[C@@H]1O; test: malachite green phosphate release assay; assay type: biochemical, Cicer arietinum; conditions: Mg2+ (optimum 5 mM; typical assay 3 mM MgCl2), 50 mM Tris-Cl pH 8, 37 °C
Source text: as §1

B1: CaIMP (Cicer arietinum) (protein)
chain: MVDNDSHSEFLASAVEAAHKAGDVIRKAFYQTKHVQHKGTVDLVTETDKACEELIFNHLKELYPTHKFIGEETTAAFGTTELTDDPTWIVDPLDGTTNFVHGFPFVCVSIGLTIGKVPTVGVVYNPIINELFTAIRGQGAFLNGNPIKVSSQTELVSSLLATEAGTKRDKATLDASTDRINSLLYKVRSLRMSGSCALNLCGVACGRLDLFFETGFGGPWDVAGGAVIVREAGGVVFDPSGADFDITAQRVAASNPLLKDAFVDALRQTE
notes: full-length ORF (813 bp, 270 aa, ~30 kDa) in pET-23b NdeI/XhoI, E. coli BL21(DE3)
Km [1]: 25.9 µM
Vmax [1]: 4.86 µmol/min/mg
Km [2]: 16.7 µM
Vmax [2]: 5.61 µmol/min/mg
